# Earlier results as cited in paper PMC4041007.
# Experiments:
# LLT1 (Homo sapiens) = LLT1 (Homo sapiens) (UniProt Q9UHP7)
# KACL (Homo sapiens) = KACL (Homo sapiens) (UniProt Q6UVW9)
# Sequence of UniProt Q6UVW9 (Q6UVW9 whole entry): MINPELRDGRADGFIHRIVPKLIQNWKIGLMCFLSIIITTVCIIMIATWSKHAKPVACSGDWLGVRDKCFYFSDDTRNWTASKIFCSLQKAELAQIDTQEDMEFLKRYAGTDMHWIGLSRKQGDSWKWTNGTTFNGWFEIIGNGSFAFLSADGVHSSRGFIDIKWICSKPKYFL
# Sequence of UniProt Q9UHP7 (Q9UHP7 whole entry): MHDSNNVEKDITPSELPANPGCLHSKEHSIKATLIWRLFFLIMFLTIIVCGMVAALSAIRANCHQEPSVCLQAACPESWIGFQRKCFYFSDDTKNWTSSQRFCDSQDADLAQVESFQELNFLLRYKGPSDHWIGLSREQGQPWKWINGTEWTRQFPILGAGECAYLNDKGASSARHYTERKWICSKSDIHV
Substance,Kd (LLT1 (Homo sapiens)) [µM],Kd (KACL (Homo sapiens)) [µM]
NKR-P1A (from UniProt Q12918),50,
NKp65 (from UniProt D3W0D1),,0.002
